Tests used:
[1] = target: batCOV5-M, trypsin-treated stable core as crystallized (batCOV5-M_(xtal)) (Pipistrellus bat coronavirus HKU5) (UniProt A3EXD6); assay: crystal structure
[2] = target: batCOV5-MCTD-GFP as crystallized (Pipistrellus bat coronavirus HKU5) (UniProt A3EXD6); assay: crystal structure

Substance | stoichiometry N [1] | stoichiometry N [2]
batCOV5-M, trypsin-treated stable core as crystallized (batCOV5-M_(xtal)) (from UniProt A3EXD6 1-220) (natural protein) | 2 | –
batCOV5-MCTD-GFP as crystallized (from UniProt A3EXD6 115-203) (domain or fragment) | – | 4

Source: article doi:10.1101/2022.06.28.497981
